Experiments:
[1] = biological target: T1, HAdV-D30 fiber-knob protein (Human adenovirus 30, UniProt M0QTV3); experiment: X-ray crystal structure of soaked crystal; format: binding; settings: 10 mM soak; conserved apical pocket; mixture of alpha and beta anomers
T1 construct: gene L5; trimer

[2] = biological target: T2, HAdV-D53 fiber-knob protein (Human adenovirus 53, UniProt E5RWD1); experiment: X-ray crystal structure of briefly soaked crystal; format: binding; settings: 10 mM, very short soak; conserved apical pocket; beta anomer modelled
T2 construct: gene L5; trimer

[3] = biological target: T3, HAdV-D25 fiber-knob protein (Human adenovirus 25, UniProt M0QUM1); experiment: X-ray crystal structure of soaked crystal; format: binding; settings: 10 mM soak; conserved apical pocket; mixture of alpha and beta anomers
T3 construct: gene L5; trimer

[4] = biological target: T4, HAdV-D29 fiber-knob protein (Human adenovirus 29, UniProt E1CIQ3); experiment: X-ray crystal structure of soaked crystal; format: binding; settings: 10 mM soak; conserved apical pocket; mixture of alpha and beta anomers
T4 construct: gene L5; trimer

[5] = biological target: HAdV-D15 fiber knob protein (human adenovirus D15); experiment: crystal structure; apo crystals of recombinant fiber knob protein; Pact Premier Screen, 18 °C, data at 100 K; trimer seen in the structure
[6] = biological target: HAdV-D24 fiber knob protein (human adenovirus D24); experiment: as above
[7] = biological target: HAdV-D29 fiber knob protein (human adenovirus D29); experiment: as above
[8] = biological target: HAdV-D30 fiber knob protein (human adenovirus D30); experiment: as above
[9] = biological target: HAdV-D32 fiber knob protein (human adenovirus D32); experiment: as above
[10] = biological target: HAdV-D53 fiber knob protein (human adenovirus D53); experiment: as above

What does the source list for CC(=O)N[C@H]1[C@H]([C@H](O)[C@H](O)CO)OC(O)(C(=O)O)C[C@@H]1O (mixture of isomers) [sialic acid]?
X-ray crystal structure of soaked crystal [1]: four structures of HAdV-D25, D29, D30 and D53 in complex with sialic acid; X-ray crystal structure of briefly soaked crystal [2]: short soak allowed only two of four trimers in the asymmetric unit to bind β-sialic acid; X-ray crystal structure of soaked crystal [3]: four structures of HAdV-D25, D29, D30 and D53 in complex with sialic acid; X-ray crystal structure of soaked crystal [4]: four structures of HAdV-D25, D29, D30 and D53 in complex with sialic acid

With “HAdV-D15 fiber knob protein (domain or fragment)” as the molecule, how does the stoichiometry N [5] read?
Its stoichiometry N is 3.

“HAdV-D24 fiber knob protein (domain or fragment)” was tested. Which stoichiometry N [6] did it give?
Its stoichiometry N is 3.

How did the stoichiometry N [7] turn out when “HAdV-D29 fiber knob protein (domain or fragment)” was run?
Its stoichiometry N is 3.

Which stoichiometry N [8] does the source give for “HAdV-D30 fiber knob protein (domain or fragment)” here?
The stoichiometry N was 3.

For “HAdV-D32 fiber knob protein (domain or fragment)”, which stoichiometry N [9] is on record?
Its stoichiometry N is 3.

For “HAdV-D53 fiber knob protein (domain or fragment)”, which stoichiometry N [10] is on record?
Its stoichiometry N is 3.
